From article PMC4321536, “Chloroplast-encoded serotonin N-acetyltransferase in the red alga Pyropia yezoensis: gene transition to the nucleus from chloroplasts” (Journal of Experimental Botany, 2014)

Substrate: NCCc1c[nH]c2ccc(O)cc12
Assay: HPLC-fluorescence detection of N-acetylserotonin; Lineweaver-Burk plot
Format: biochemical, Pyropia yezoensis
Settings: acetyl-CoA co-substrate (0.5 mM in standard assay), 100 mM potassium phosphate pH 8.8, 55 °C

B1: PySNAT (Pyropia yezoensis; I2V) (protein)
chain: MVFWKNFFQNSNINASSEKNFKKLIVLDKTCDKIEFKDIYLSSNKNINLYELEQLCDSVGWVKRPLKKVKIALKNSSIIISLIQKKDANSKLVGFARATSDNGFNATIWDVVIHPDFQGLGLGKVVIHQLIQQLRQAEISTITLFAEPDVVSFYKKLGFIKDPDGVKGMFWYPR
notes: full-length chloroplast-encoded protein, 174 aa, calculated 20099 Da, C-terminal His tag kept (pET28b NcoI/XhoI), E. coli BL21(DE3), Ni-NTA; no transit peptide; I2V read from the printed NcoI forward primer (ATG GTC for native ATG ATC)
  Km: 467 µM
